From US5935824A, “Protein expression system” (Technologene, Inc., priority 1996, dated 1999)
No end group written: not given here.

How the values were obtained:
[1] = biological target: T1, carboxypeptidase Y (CPD-Y) immobilized to Acti-Disk (Saccharomyces cerevisiae, UniProt P00729); assay: Flow digestion of Lys-Lys peptide through CPD-Y Acti Disk, modified ninhydrin assay; format: biochemical, yeast; conditions: 400 μM peptide; pH 5.75; flow 2 ml/min and 500 μl/min
T1 construct: purchased Sigma
T1 sequence (P00729 112-532): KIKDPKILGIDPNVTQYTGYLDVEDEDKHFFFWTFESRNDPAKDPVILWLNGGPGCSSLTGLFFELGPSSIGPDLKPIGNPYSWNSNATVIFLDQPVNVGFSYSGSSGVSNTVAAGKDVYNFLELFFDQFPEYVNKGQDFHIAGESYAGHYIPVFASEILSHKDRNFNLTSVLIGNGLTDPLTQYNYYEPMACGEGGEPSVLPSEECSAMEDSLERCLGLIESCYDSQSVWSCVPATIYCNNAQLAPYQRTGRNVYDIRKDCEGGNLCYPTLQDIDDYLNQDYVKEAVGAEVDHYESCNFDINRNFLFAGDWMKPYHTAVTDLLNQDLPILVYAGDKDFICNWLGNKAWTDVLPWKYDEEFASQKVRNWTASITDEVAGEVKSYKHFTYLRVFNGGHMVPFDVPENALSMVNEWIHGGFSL
Method: The peptide sequence is […](SEQ ID NO:73) (Sigma; herein after referred to as the Lys-Lys peptide). Analysis of the of the reaction rates required the use of a modified ninhydrin assay developed by Doi, et al. for the analysis of peptidase activity [Anal. Biochem. 118:173 (1981)]. Compared to the ninhydrin assays described above, the pH of the ninhydrin solution is reduced (pH=4.6) and the heating time is shortened (less than or equal to 20 minutes) such that only free amino acids react at appreciable rates. Incubation times were strictly controlled by performing incubation at elevated temperatures in a programmable thermocycler (Hybaid).
The Lys-Lys peptide was suspended at a concentration of 400 μM in 100 mM Citrate buffer, 100 mM NaCl, pH 5.75 and subjected to flow digestions at 2 ml/min and 500 μl/min. The amount of free lysine released was quantified by mixing 200 μl of flow sample with 200 μl 0.2 M NaCitrate, pH 4.6 and 100 μl of 2.5% ninhydrin in methyl cellusolve (Sigma), 0.03% ascorbic acid. […] The OD570 was determined and the values were converted to μM of product in order to determine the first order rate constant for the Lys-Lys bond in the CPD-Y Acti Disk flow digestion (k=0.160). This is the same value determined for the N-CBZ-Gly-Pro dipeptide. […]

[2] = biological target: T2, CPD-Y immobilized on cross-linked agarose (Saccharomyces cerevisiae, UniProt P00729); assay: Recirculating digestion of control peptide over CPD-Y/agarose column, HPLC; format: biochemical, yeast; conditions: 100 μg/ml in PBS pH 6.5; gravity flow
T2 construct: purchased Pierce
T2 sequence (P00729 112-532): T1 sequence (P00729 112-532)
Method: Ten milliliters of a solution containing 100 μg/ml of the control peptide in PBS (pH 6.5) was repeatedly passed through 1 ml of a matrix consisting of CPD-Y immobilized on cross-linked agarose (12.5 U/ml, Pierce). The 10 ml sample was applied to the top of a 1.0 cm Affinica column (Schleicher & Schuell) containing 1.0 ml of the immobilized CPD-Y/agarose and allowed to flow by gravity. An aliquot (100 μl) of the digestion reaction were taken and the remaining sample was reapplied to the column as the previous sample approached the matrix (i.e., the sample was recirculated through the column). Aliquots (100 μl) were removed after 1, 5, 11 and 17 passes over the immobilized CPD-Y/agarose column; 20 μl of these aliquots were analyzed by high pressure liquid chromatography (HPLC) using a TFA/acetonitrile gradient and a C-18 column (Hytach protein column). A Shimadzu HPLC spectrophotometer equipped with a UV recorder was adjusted to analyze the digestion products at 210 nm. The following buffers were used for the HPLC analysis. Buffer A consisted of 1.125% TFA and Buffer B consisted of 1.0% TFA in 80% acetonitrile. To achieve separation of the peptides produced by CPD-Y digestion of the control peptide, a gradient of 0-30% B buffer was applied over a 30 minute period.

[3] = biological target: T1, carboxypeptidase Y (CPD-Y) immobilized to Acti-Disk; conditions: free CPD-Y; deduced from Kuhn; cited from earlier work
[4] = biological target: T1, carboxypeptidase Y (CPD-Y) immobilized to Acti-Disk; assay: Flow digestion of control peptide through CPD-Y immobilized on Acti-Disk, HPLC analysis; format: biochemical, yeast
Method: To achieve limited, specific digestion of the control peptide (i.e., removal of the phenylalanine residue only) approximately 4 mg of CPD-Y (Sigma) was immobilized to a pre-activated (GTA) Acti-Disk Cartridge (25 mm; Arbor Technologies). The silicon-based matrix within the Acti-Disk is described in U.S. Pat. No. 3,862,030, the disclosure of which is herein incorporated by reference. Essentially, this matrix is a microporous fluid-permeable filter that has finely divided hydrophilic filler particles dispersed throughout a microporous matrix which are capable of binding large amounts of protein or enzyme. The matrix has an extremely large surface area (80 m^2 /gram) attributed to a large number of interconnected pores of non-uniform size distribution. The matrix is 60% porous and is commercially available in a wide variety of sizes and thicknesses for scale-up. This matrix represents a limited-diffusional matrix.
Immobilization of CPD-Y to the Acti-Disk cartridge was accomplished by recirculating 10 mls of a solution containing 1 mg/ml CPD-Y in 100 mM Na Citrate (pH 6.0) through the Acti-Disk according to the manufacturers protocol for 90 minutes at room temperature. The OD280 of the CPD-Y solution was measured before and after the immobilization procedure. The disk was washed extensively with 100 mM Tris-HCl (pH 8.0), 500 mM NaCl buffer until no protein was detected in the wash. The final concentration of enzyme per available fluid volume within the disk (65 nmoles/115 μl) was 0.565 mM (35 mg/ml). The porous nature of the Acti-Disk matrix immobilizes the carboxypeptidase enzyme on the […] of the matrix allowing a more consistent exposure of the substrate to enzyme than do the traditional cross linked agarose matrixes.
The control peptide (SEQ ID NO:70), at a concentration of 100 μg/ml, was passed through the CPD-Y Disk at flow rates ranging from 4 ml/min to 100 μl/min; a […] pump (Pharmacia) was used to regulate the flow. A 2 ml sample of the flow digestion at 4 ml/min was collected. The setting on the peristaltic pump was changed to 3 ml/min and the reaction was allowed to equilibrate. Five milliliters of the solution containing the control peptide processed at the lower flow rate (3 ml/min) was allowed to pass through the exit tubing before another 2 ml sample was collected. This procedure was repeated at each designated flow rate. An aliquot (25 μl) of each sample was run on the Hytach protein column as described above. In Table 4 the time refers to time spent in the reaction chamber (i.e., the Acti-Disk).
This value was determined by comparing the initial velocity of the control peptide CPD-Y-Acti-Disk flow digestion to the manufacturer's specific activity for free enzyme (i.e., enzyme present in solution) through the use of the Michaelis-Menton rate equation. The specific activity for Phe-Ala substrate 100 μmoles/mg (Sigma) was converted to activity by multiplying by the amount of enzyme immobilized within the Acti-Disk matrix (4 mg). […] This value compares well to the value that can be approximated from the Kcat data provided by Kuhn. The Kcat value for the cleavage of the Ser-Phe bond by free CPD-Y can be deduced from Kuhn's data to be approximately 400/min and this value was used to calculate the maximum initial velocity (Vo at [S]=79 μM) for 100% activity of the immobilized enzyme. […] 100% activity (Vo) for 79 μM flow digestion experiments is calculated using the theoretical KM =0.69 mM deduced from Kuhn's data, Vo=23.2 mM/min. Initial velocity Vo for control peptide flow experiments were determined by plotting μM of product produced versus seconds of incubation within the immobilization matrix of the Acti-Disk (see FIG. 29).
In FIG. 29, the log ([S]/[S]-[P]) (in μM) is plotted against the incubation time (in seconds). For the results shown in FIG. 29, the following calculations apply: the 4000 μl/min flow rate through 115 μl reaction matrix equals 1.73 seconds within the matrix. […]

In the case of PLSRLSVAKK [Lys-Lys peptide], the “First order rate constant for the Lys-Lys bond (k)” value [1] is reported as 0.160.
In the case of ALKDAQTNSSSF [control peptide], the “Passes needed to substantially decrease the amount of full length peptide” value [2] is listed as greater than 15 passes, the “Estimated Km for the Ser-Phe bond” value [3] is listed as 690 µM and the “Kcat for the Ser-Phe bond” value [3] is listed as 6.67 s⁻¹. For the same sequence, the “Initial reaction rate (Vo), observed” value ([4]; 79 μM control peptide, initial slope of fitted curve) was roughly 3.6 mM/min, the “Cleavage of the ultimate bond (Ser-Phe)” value ([4]; 100 μg/ml, single pass, flow rate 500 μl/ml (so in the source)) was 86% and the “Cleavage of the ultimate bond (Ser-Phe)” value ([4]; 5 ml recirculated 20 minutes at the same flow rate) was 96%. For the same sequence, the “Vmax for 100% activity” value ([4]; Kcat 400/min × 0.565 mM enzyme) was 226 mM/min, the “Vo for 100% activity of the immobilized enzyme” value ([4]; [S]=79 μM, theoretical KM 0.69 mM) was 23.2 mM/min and the “Product” value ([4]; control peptide 100 μg/ml, flow rate 0.25 ml/min, 27.6 sec in Acti-Disk) was 72 µM. For the same sequence, the “% Product Remaining” value ([4]; control peptide 100 μg/ml, flow rate 0.25 ml/min, 27.6 sec in Acti-Disk, 0.46 min) was 8.3%, the “Product” value ([4]; flow rate 0.50 ml/min, 13.8 sec) was 68 µM and the “% Product Remaining” value ([4]; flow rate 0.50 ml/min, 13.8 sec, 0.23 min) was 14.0%. For the same sequence, the “Product” value ([4]; flow rate 1.0 ml/min, 6.9 sec) was 59 µM, the “% Product Remaining” value ([4]; flow rate 1.0 ml/min, 6.9 sec, 0.115 min) was 25.6% and the “Product” value ([4]; flow rate 1.5 ml/min, 4.6 sec) was 54 µM. For the same sequence, the “% Product Remaining” value ([4]; flow rate 1.5 ml/min, 4.6 sec, 0.0766667 min) was 32.4%, the “Product” value ([4]; flow rate 2.0 ml/min, 3.45 sec) was 48 µM and the “% Product Remaining” value ([4]; flow rate 2.0 ml/min, 3.45 sec, 0.0575 min) was 38.7%. For the same sequence, the “Product” value ([4]; flow rate 2.5 ml/min, 2.76 sec) was 45 µM, the “% Product Remaining” value ([4]; flow rate 2.5 ml/min, 2.76 sec, 0.046 min) was 42.8% and the “Product” value ([4]; flow rate 3.0 ml/min, 2.3 sec) was 43 µM. The “% Product Remaining” value ([4]; flow rate 3.0 ml/min, 2.3 sec, 0.0383333 min) was 46.4%, the “Product” value ([4]; flow rate 4.0 ml/min, 1.73 sec) was 39 µM and the “% Product Remaining” value ([4]; flow rate 4.0 ml/min, 1.73 sec, 0.0288333 min) was 51.5%. For the same sequence, the “Cleavage of the second bond (Ser-Ser)” value ([4]; recirculation at 500 μl/min) was “not detectably cleaved” and the “Control peptide molecules with carboxy-terminal phenylalanine removed” value ([4]; varied flow rate and substrate concentration) was “approximately 96%”.
